The target in assay [1] is T1, human CD3 on cells (Jurkat cells, human T cells) (human, UniProt P07766 23-207).
T1 construct: whole, on cells
Description: flow cytometry on Jurkat cells, anti-human IgG AF647 secondary antibody. As to the method:
The ability of the parental huOKT3 anti-CD3 antibody TAC2245 and the activatable huOKT3 anti-CD3 antibody TY23104 to bind Jurkat cells was measured in a dose-dependent binding assay.
The Jurkat cells were thawed, washed and cultured in an incubator. 4×10⁵ Jurkat cells/well were aliquoted into 96-well plate and incubated with parental huOKT3 TAC2245 or activatable huOKT3 for 1 hour at 4° C. After centrifugation and washing, Jurkat cells were further incubated with the secondary antibody anti-human IgG AF647 for 30 minutes at 4° C. After centrifugation and washing, the Jurkat cells labelled with antibodies were re-suspended in 2% FBS DPBS and analyzed by FACS.

Assay [2] concerns the target T1, human CD3 on cells (Jurkat cells, human …). In words: Jurkat cell binding.
The target is the same in assay [3]. Description: Jurkat cell binding. The source holds these as a separate data set.

Positions count from the first letter of the chain named. Names may count otherwise. “And” between values parts separate entries of the source, which are not always exact repeats. Identical values can stand only once. Like-named read-outs stand apart in the source and are kept apart here.

Results on six molecules are retold here after patent US20250326860A1 (ADAGENE PTE, published 2025).

T1 sequence (P07766 23-207): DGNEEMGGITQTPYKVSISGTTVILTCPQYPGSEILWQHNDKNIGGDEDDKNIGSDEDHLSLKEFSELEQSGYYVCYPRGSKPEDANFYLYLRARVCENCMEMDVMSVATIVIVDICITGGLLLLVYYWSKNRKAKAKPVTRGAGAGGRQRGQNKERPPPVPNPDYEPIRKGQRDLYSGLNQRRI

B1: TY23104 (antibody, human IgG4 S228P, kappa)
light: EVGSYAYHDDDCPDDDYDCASSGRSAGGGGTPLGLAGSGGSDIQMTQSPSSLSASVGDRVTITCSASSSVSYMNWYQQTPGKAPKRWIYDTSKLASGVPSRFSGSGSGTDYTFTISSLQPEDIATYYCQQWSSNPFTFGQGTKLQITRTVAAPSVFIFPPSDEQLKSGTASVVCLLNNFYPREAKVQWKVDNALQSGNSQESVTEQDSKDSTYSLSSTLTLSKADYEKHKVYACEVTHQGLSSPVTKSFNRGEC
heavy: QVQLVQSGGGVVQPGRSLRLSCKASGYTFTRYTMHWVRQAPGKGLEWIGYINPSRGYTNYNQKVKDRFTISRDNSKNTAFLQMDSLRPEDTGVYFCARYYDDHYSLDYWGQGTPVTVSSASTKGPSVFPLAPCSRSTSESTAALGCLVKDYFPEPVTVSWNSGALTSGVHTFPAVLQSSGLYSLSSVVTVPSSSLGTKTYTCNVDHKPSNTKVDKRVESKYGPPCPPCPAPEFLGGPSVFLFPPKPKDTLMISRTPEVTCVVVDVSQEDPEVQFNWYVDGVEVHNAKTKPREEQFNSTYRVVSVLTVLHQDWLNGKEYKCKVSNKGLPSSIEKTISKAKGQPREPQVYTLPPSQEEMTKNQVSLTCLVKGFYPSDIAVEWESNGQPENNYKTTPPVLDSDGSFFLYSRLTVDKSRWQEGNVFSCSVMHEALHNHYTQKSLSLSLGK
notes: also called anti-CD3 SAFEbody
In the case of B1, the EC50 (read off the curve) – broadly, the concentration at which the effect is half-maximal – in assay [1] was around 70 nM.

B2: TAC2245 (antibody, V domains shown)
VH: QVQLVQSGGGVVQPGRSLRLSCKASGYTFTRYTMHWVRQAPGKGLEWIGYINPSRGYTNYNQKVKDRFTISRDNSKNTAFLQMDSLRPEDTGVYFCARYYDDHYSLDYWGQGTPVTVSS
VL: DIQMTQSPSSLSASVGDRVTITCSASSSVSYMNWYQQTPGKAPKRWIYDTSKLASGVPSRFSGSGSGTDYTFTISSLQPEDIATYYCQQWSSNPFTFGQGTKLQIT
notes: also called huOKT3-C114S-gLC; parental huOKT3 anti-CD3 antibody
For B2, in assay [1], the “EC50 (read off the curve)” value is around 0.3 nM.

B3: TY24051 (bispecific antibody)
light: not shown
heavy: not shown
chain: QAVVTQEPSLTVSPGGTVTLTCGSSTGAVTTSNYANWVQQKPGQAPRGLIGGTNKRAPGVPARFSGSLLGGKAALTLSGAQPEDEAEYYCALWYSNLWVFGGGTKLTVLRGGGGSGGGGSGGGGSGGGGSEVQLVESGGGLVQPGGSLRLSCAASGFTFNTYAMNWVRQAPGKGLEWVGRIRSKYNNYATYYADSVKGRFTISRDDSKNTLYLQMNSLRAEDTAVYYCVRHGNFGNSYVSWFAYWGQGTLVTVSSEPKSSDKTHTCPPCPAPELLGGPSVFLFPPKPKDTLMISRTPEVTCVVVDVSHEDPEVKFNWYVDGVEVHNAKTKPREEQYASTYRVVSVLTVLHQDWLNGKEYKCKVSNKALPAPIEKTISKAKGQPREPQVYTDPPSRDELTKNQVSLTCLVDGFYPSDIAVEWESNGQPENCYKTTPPVLDSDGSFFLYSKLTVDKSRWQQGNVFSCSVMHEALHNHYTQDSLSLSPGK
notes: also called parental HER2xCD3 bispecific antibody; anti-CD3 variant TAC2225
Consider B3, for which, in assay [2], the EC50 – broadly, the concentration giving half of the maximal effect – is 15.3 nM and 10.2 nM.

B4: TY25023 (bispecific antibody, human IgG1, kappa, N297A)
light: not shown
heavy: not shown
chain: EAVVTQEPSLTVSPGGTVTLTCGSSTGAVTTSNYPNWVQQKPGQAPRGLIGGTNKRAPGTPARFSGSLLGGKAALTLSGAQPEDEAEYYCALWYSDLWVFGGGTKLTVLGGGGSGGGGSGGGGSGGGGSEVQLVESGGGLVQPGGSLRLSCAASGFTFSTYAINWVRQAPGKGLEWVSRIRSKYNNYATYYAESVKDRFTISRDDSKNTLYLQINSLRAEDTAVYYCVRHGNFGTSYVSWFAYWGQGTLVTVSSEPKSSDKTHTCPPCPAPELLGGPSVFLFPPKPKDTLMISRTPEVTCVVVDVSHEDPEVKFNWYVDGVEVHNAKTKPREEQYASTYRVVSVLTVLHQDWLNGKEYKCKVSNKALPAPIEKTISKAKGQPREPQVYTDPPSRDELTKNQVSLTCLVDGFYPSDIAVEWESNGQPENCYKTTPPVLDSDGSFFLYSKLTVDKSRWQQGNVFSCSVMHEALHNHYTQDSLSLSPGK
notes: also called anti-CD3 variant TY24742
B4: the EC50 in assay [2] is > 1000 nM and 480 nM.

B5: TY25524 (bispecific antibody, human IgG1, kappa, N297A)
light: not shown
heavy: not shown
chain: B4 chain with P35A, N54K, K55F, T60I, L97H, S178G, D197G, V228A
In assay [3], B5 came in with an EC50 of 260 nM.

B6: TY25525 (bispecific antibody, human IgG1, kappa, N297A)
light: not shown
heavy: not shown
chain: B4 chain with E1Q, T60V, D96N, Q142K, T160S, S178G, D197G, T235N, W240Y, F241W
Consider B6, for which the concentration for a half-maximal effect (EC50) in assay [3] turned out to be 6.88 nM. This EC50 lies about 38-fold lower than the previous one.
